Source: publication PMC10261046, “Mechanism of small molecule inhibition of Plasmodium falciparum myosin A informs antimalarial drug design” (Nature Communications, 2023)

T1: Full-length PfMyoA heavy chain WT (Plasmodium falciparum, UniProt Q8IDR3 1-818)
T1 sequence (heavy): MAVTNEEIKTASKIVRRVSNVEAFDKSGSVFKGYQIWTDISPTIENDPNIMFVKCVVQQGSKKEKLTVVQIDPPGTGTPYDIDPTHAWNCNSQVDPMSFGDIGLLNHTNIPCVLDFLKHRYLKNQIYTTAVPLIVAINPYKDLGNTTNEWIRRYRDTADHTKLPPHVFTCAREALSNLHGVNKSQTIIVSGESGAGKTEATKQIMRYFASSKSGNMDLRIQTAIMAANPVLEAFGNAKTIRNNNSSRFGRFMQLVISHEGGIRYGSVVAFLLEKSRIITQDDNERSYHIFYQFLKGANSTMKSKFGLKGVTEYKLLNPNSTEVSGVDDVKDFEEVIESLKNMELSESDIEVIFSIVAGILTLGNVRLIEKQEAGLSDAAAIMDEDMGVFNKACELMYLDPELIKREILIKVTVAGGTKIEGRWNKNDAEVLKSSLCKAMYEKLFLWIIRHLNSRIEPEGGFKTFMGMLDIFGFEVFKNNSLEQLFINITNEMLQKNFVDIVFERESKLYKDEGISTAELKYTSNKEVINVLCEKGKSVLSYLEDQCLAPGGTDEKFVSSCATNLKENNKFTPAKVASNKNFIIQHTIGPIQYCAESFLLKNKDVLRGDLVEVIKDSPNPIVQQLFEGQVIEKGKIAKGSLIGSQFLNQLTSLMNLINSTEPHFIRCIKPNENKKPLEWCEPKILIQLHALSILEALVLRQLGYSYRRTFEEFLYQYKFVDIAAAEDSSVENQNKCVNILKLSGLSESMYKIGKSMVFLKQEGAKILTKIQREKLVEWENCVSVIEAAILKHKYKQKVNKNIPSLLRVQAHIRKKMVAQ

B1: PfMyoA (full length Plasmodium falciparum myosin A heavy chain WT with bound light chains PfELC and PfMTIP) (complex)
chain 1: T1 sequence (heavy)
chain 2: MASDMEEKFREAFILFSSCSDHIEMYKFFELMNSFGIILTNDEKAALPNDINMDYWLNFAKKHYNYEQPFKHINNVNEQNTNVQIKIDNFLGIMKALDTRLTESDLNILLQITNPENKSTLNLKTVSQKLTESI
chain 3: MKQECNVCYFNLPDPESTLGPYDNELNYFTWGPGFEYEPEPQRKPLSIEESFENSEESEESVADIQQLEEKVDESDVRIYFNEKSSGGKISIDNASYNARKLGLAPSSIDEKKIKELYGDNLTYEQYLEYLSICVHDKDNVEELIKMFAHFDNNCTGYLTKSQMKNILTTWGDALTDQEAIDALNAFSSEDNIDYKLFCEDILQ
notes: also called class XIV myosin A; M.ADP; copies: + +
B2: PfELC (natural protein)
light: B1 chain 2
notes: also called essential light chain
B3: MTIP-ΔN (PfMTIP lacking residues 1-E60) (domain or fragment)
light: SVADIQQLEEKVDESDVRIYFNEKSSGGKISIDNASYNARKLGLAPSSIDEKKIKELYGDNLTYEQYLEYLSICVHDKDNVEELIKMFAHFDNNCTGYLTKSQMKNILTTWGDALTDQEAIDALNAFSSEDNIDYKLFCEDILQ
notes: also called ΔN-MTIP

How the values were obtained:
[1] = target: Skeletal muscle actin (chicken), filaments (chicken, UniProt P68139 1-377); experiment: count of fluorescent actin filaments on surface-immobilized myosin (modified in vitro motility assay); PfMyoA surface-immobilized; same buffer, 0% methylcellulose, 30 °C; no nucleotide (NF); with or without KNX-002; settings: both partners purified
[2] = target: T1, Full-length PfMyoA heavy chain WT; experiment: crystal structure; PfMyoA/ELC/MTIP-ΔN co-crystallized with or without KNX-002 and with or without ATPγS; hanging drop, 4 °C, 2.0 M ammonium sulfate, 0.1 M sodium HEPES pH 7.5, 4% PEG400; settings: both partners purified

| Binder | binding result [1] | binding result [2] |
| --- | --- | --- |
| B1 | binds |  |
| B2 |  | binds |
| B3 |  | binds |
